According to US20240254246A1 (PROMETHEUS BIOSCIENCES, published 2024):
Where two headings read alike, the source gives them in different places.

Columns and labels:
recombinant human CD30L [1] = target: T1, recombinant human CD30L (human, UniProt P32971 63-234); experiment: ELISA, blocking of CD30-Fc on huCD30L; competitor CD30-Fc
T1 construct: Purified recombinant protein of ELISA, BLI, Carterra and KinExA; also called rhCD30L; huCD30L
T1 sequence (looked up): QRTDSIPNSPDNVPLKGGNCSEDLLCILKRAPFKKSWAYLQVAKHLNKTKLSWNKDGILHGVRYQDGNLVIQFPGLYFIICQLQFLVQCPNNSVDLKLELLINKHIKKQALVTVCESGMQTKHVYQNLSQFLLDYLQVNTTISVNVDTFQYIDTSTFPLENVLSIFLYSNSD

[2] = target: T2, human CD30L expressed on B16 cells (human, UniProt P32971 1-234); experiment: flow cytometry, binding to B16-rhCD30L cells
T2 construct: whole, on cells; B16 cell line transfected to express human CD30L; also called B16-huCD30L; B16-rhCD30L
T2 sequence (looked up): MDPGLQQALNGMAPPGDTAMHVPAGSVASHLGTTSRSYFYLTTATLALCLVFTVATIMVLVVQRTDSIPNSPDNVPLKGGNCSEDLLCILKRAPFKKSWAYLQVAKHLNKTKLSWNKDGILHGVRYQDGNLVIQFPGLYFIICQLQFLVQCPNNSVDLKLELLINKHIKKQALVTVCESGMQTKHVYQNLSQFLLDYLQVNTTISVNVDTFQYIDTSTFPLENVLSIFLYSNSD

recombinant human CD30L [3] = target: T1, recombinant human CD30L; experiment: ELISA, binding to purified rhCD30L
[4] = target: T3, recombinant cynomolgus CD30L (cynomolgus, UniProt A0A7N9CVX7 63-234); experiment: ELISA, blocking of CD30-Fc on rcyCD30L; competitor CD30-Fc
T3 construct: Purified recombinant protein; also called rcyCD30L; cyno CD30L
T3 sequence: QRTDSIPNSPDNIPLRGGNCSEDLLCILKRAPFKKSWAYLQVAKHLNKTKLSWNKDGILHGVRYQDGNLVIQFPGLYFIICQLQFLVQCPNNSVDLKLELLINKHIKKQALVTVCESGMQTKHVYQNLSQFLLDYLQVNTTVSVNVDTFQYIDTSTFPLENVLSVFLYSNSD

[5] = target: T4, cynomolgus CD30L expressed on HEK293 cells (cynomolgus, UniProt A0A7N9CVX7 1-234); experiment: flow cytometry, binding to HEK293-cyCD30L cells
T4 construct: whole, on cells; also called HEK293-cyCD30L; HEK-cyCD30L
T4 sequence: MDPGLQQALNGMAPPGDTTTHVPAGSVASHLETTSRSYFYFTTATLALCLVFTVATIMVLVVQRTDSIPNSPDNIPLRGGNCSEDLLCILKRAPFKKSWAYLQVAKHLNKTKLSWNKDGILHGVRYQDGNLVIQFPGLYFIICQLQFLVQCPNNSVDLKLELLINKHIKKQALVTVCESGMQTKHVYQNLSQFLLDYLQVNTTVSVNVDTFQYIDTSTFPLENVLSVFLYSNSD

[6] = target: T2, human CD30L expressed on B16 cells; experiment: flow cytometry, blocking of CD30-Fc on B16-huCD30L cells; competitor CD30-Fc
[7] = target: T4, cynomolgus CD30L expressed on HEK293 …; experiment: flow cytometry, blocking of CD30-Fc on HEK293-cyCD30L cells; competitor CD30-Fc
[8] = target: T4, cynomolgus CD30L expressed on HEK293 …; experiment: cell-based or functional assay
[9] = target: T2, human CD30L expressed on B16 cells; experiment: cell-based or functional assay
[10] = target: T3, recombinant cynomolgus CD30L; experiment: ELISA, binding to purified rcyCD30L
[11] = target: T5, recombinant human CD30L protein (human, UniProt P32971 63-234); experiment: ELISA, CD30 competitor, 1/1000 dil
T5 construct: Recombinant protein used in ELISA; also called huCD30L
T5 sequence (looked up): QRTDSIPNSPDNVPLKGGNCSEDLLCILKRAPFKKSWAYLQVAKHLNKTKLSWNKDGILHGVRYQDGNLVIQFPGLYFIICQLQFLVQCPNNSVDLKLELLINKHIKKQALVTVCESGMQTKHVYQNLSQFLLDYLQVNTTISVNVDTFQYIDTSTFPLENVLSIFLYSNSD

[12] = target: T6, recombinant cynomolgus CD30L protein (cynomolgus, UniProt A0A7N9CVX7 63-234); experiment: ELISA, 1/50 dil
T6 construct: Recombinant protein used in ELISA; also called cyCD30L
T6 sequence: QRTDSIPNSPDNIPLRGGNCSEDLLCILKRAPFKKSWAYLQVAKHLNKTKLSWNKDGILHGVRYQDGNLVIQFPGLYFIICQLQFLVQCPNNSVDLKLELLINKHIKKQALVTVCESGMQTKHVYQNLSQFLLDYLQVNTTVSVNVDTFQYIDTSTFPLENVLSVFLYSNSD

[13] = target: T7, human CD30L expressed on cells (human, UniProt P32971 1-234); experiment: flow cytometry, PMA/ionomycin-stimulated primary lymphocytes, Patient 3 (UC, #02-180)
T7 construct: whole, on cells; also called huCD30L; B16-huCD30L cells
T7 sequence (looked up): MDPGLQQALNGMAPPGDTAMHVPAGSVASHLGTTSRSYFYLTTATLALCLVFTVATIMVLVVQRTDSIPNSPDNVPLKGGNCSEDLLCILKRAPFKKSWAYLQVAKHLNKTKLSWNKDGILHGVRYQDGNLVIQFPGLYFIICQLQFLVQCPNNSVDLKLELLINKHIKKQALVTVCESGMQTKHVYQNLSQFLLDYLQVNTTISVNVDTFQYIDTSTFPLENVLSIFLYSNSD
Text: (§1) Peripheral blood mononuclear cells (PBMCs) were isolated from freshly collected whole blood from Ulcerative Colitis (UC) and Crohn's Disease (CD) patients, by conventional density gradient centrifugation. To induce CD30L expression on primary lymphocytes, the isolated cells were stimulated overnight with Phorbol 12-myristate 13-acetate (PMA) and ionomycin. […] After washing to remove unbound antibodies, the cells were fixed in a paraformaldehyde solution and analyzed by flow cytometry to quantify cell surface antibody binding.

[14] = target: T7, human CD30L expressed on cells; experiment: flow cytometry, PMA/ionomycin-stimulated primary lymphocytes, Patient 2 (UC, #03-041)
Text: as §1

[15] = target: T6, recombinant cynomolgus CD30L protein; experiment: ELISA, 1/500 dil
[16] = target: T5, recombinant human CD30L protein; experiment: ELISA, CD30 competitor, 1/100 dil
[17] = target: T5, recombinant human CD30L protein; experiment: ELISA, CD30 competitor, 1/10 dil
[18] = target: T7, human CD30L expressed on cells; experiment: flow cytometry, PMA/ionomycin-stimulated primary lymphocytes, Patient 1 (CD, #04-021)
Text: as §1

[19] = target: T6, recombinant cynomolgus CD30L protein; experiment: ELISA, 1/5000 dil
[20] = target: T5, recombinant human CD30L protein; experiment: ELISA, CD30 competitor, undil
[21] = target: T7, human CD30L expressed on cells; experiment: flow cytometry, PMA/ionomycin-stimulated primary lymphocytes, Patient 4 (CD, #01-051)
Text: as §1

[22] = target: T8, recombinant human CD30L protein (human, UniProt P32971 63-234); experiment: ELISA, HuCD30L
T8 construct: also called rhCD30L; huCD30L (ELISA)
T8 sequence (looked up): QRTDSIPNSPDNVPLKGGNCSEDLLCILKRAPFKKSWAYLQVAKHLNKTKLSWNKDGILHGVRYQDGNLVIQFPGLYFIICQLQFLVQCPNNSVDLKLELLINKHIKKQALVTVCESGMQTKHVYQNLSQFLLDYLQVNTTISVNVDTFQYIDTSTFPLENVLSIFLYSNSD

[23] = target: T9, human CD30L expressed on cells (human, UniProt P32971 1-234); experiment: flow cytometry, HuCD30L cells
T9 construct: also called huCD30L; B16-huCD30L
T9 sequence: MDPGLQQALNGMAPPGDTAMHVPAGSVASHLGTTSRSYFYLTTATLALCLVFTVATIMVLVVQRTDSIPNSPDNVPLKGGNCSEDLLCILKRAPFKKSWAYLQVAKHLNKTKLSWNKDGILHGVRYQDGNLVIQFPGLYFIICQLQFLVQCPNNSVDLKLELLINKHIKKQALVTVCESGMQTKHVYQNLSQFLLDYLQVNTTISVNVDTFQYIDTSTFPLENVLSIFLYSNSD

[24] = target: T7, human CD30L expressed on cells; experiment: cell-based or functional assay
[25] = target: T10, cynomolgus CD30L expressed on HEK293 cells (cynomolgus, UniProt A0A7N9CVX7 1-234); experiment: cell-based or functional assay; remark: listed apart in the source
T10 sequence: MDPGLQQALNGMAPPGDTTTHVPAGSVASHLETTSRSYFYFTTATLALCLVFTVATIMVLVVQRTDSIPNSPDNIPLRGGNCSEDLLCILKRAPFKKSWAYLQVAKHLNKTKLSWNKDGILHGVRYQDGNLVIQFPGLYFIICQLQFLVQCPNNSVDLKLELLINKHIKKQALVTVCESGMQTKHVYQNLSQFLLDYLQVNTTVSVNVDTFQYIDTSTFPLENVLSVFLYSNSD

[26] = target: T7, human CD30L expressed on cells; experiment: flow cytometry, B16-huCD30L cells
Experimental: Anti-CD30L antibody binding to a CD30L target was determined by flow cytometry, using B16 cells transfected to express human CD30L (compared to non-transfected B16), and using HEK293 cells transfected to express cynomolgus CD30L (compared to non-transfected HEK293). […] Cell surface bound antibodies were detected using a fluorescently labeled anti-human-IgG or anti-mouse IgG, depending on the Fc portion of the antibodies. After incubation with the secondary antibody, the cells were washed, fixed in a paraformaldehyde solution, and analyzed by flow cytometry to detect antibody binding.

[27] = target: T7, human CD30L expressed on cells; experiment: flow cytometry, blocking of huCD30 binding to B16-huCD30L cells

B1: anti-CD30L antibody clone 2 (antibody, V domains shown)
VH: EVQLVESGGGLVQPGRSLRLSCAASGFNFDDYAMHWVRQAPGKGLEWVSGISWRSGNIGYAGSVKGRFTISRDNAKNSLYLQMNSLRPEDSALYYCAKDKGIGFNWNYEGFDYWGQGTLVTVSS
VL: DIQMTQSPSSLSASVGDRVTITCRASQGISNHLAWFQQKPGKAPKSLIYAASSLQSGVPSKFSGSGSGTDFTLTISSLQPEDFATYYCQQYVTYPLTFGGGTKVEIK
notes: also called clone 2 parental
IC50 (recombinant human CD30L [1]): 1.35 nM | EC50 [2]: 0.74 nM | EC50 (recombinant human CD30L [3]): 0.04 nM | IC50 [4]: 1.28 nM | EC50 [5]: 0.3 nM | IC50 [6]: 0.79 nM | IC50 [7]: 0.34 nM | Inhibition of IL-8 release in a dual cell assay (HEK293-cyCD30L cells + K299 cells) IC50 [8]: 0.31 nM | Inhibition of IL-8 release in a dual cell assay (B16-huCD30L cells + K299 cells) IC50 [9]: 0.81 nM | EC50 [10]: 0.05 nM

B2: Clone 2 (antibody, V domains shown)
VH: EVQLVESGGGLVQPGRSLRLSCAASGFNFDDYAMHWVRQAPGKGLEWVSGISWRSGNIGYAGSVKGRFTISRDNAKNSLYLQMNSLRPEDSALYYCAKDKGIGFNWNYEGFDYWGQGTLVTVSS
VL: DIQMTQSPSSLSASVGDRVTITCRASQGISNHLAWFQQKPGKAPKSLIYAASSLQSGVPSKFSGSGSGTDFTLTISSLQPEDFATYYCQQYVTYPLTFGGGTKVEIK
notes: also called CLONE_2 (parental)
% inhibition [11]: 1% | Elisa Binding (OD) [12]: 3.76 OD | EC50 [13]: 1.71 nM | EC50 [14]: 1.55 nM | Elisa Binding (OD) [15]: 3.18 OD | % inhibition [16]: 45% | % inhibition [17]: 98% | EC50 [18]: 2.4 nM | Elisa Binding (OD) [19]: 1.23 OD | % inhibition [20]: 98% | EC50 [21]: 1.72 nM

B3: anti-CD30L clone 61 (antibody, V domains shown)
VH: QITLKESGPTLVKPTQTLTLTCTFSGFSLSTSGVGVGWIRQPPGKALEWLALIYWNDDKRYSPSLKSRLTITKDTSKNQVVLTMTNMDPVDTATYYCAHRRTTTVTIYYYYMDVWGKGTTVTVSS
VL: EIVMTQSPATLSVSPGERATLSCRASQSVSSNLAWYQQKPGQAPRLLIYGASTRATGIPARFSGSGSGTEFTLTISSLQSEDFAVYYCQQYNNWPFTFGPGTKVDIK
OD [22]: 1.42 OD | MFI [23]: 362 MFI

B4: Clone 1 (antibody, V domains shown)
VH: QVQLQESGPGLVKPSETLSLTCTVSGGSISGYYWSWIRQPPVKGLEWIGYIFYSGYTKYNPSLKSRVTISVDTSKNQFSLKLSSVTAADTAVYYCARDRWDFDYWGQGALVTVSS
VL: AIQMTQSPSYLSASVGDRVTIACRASQGIRNNLGWYQQKPGKAPKLLIYAESSLQSGVPSRFSGSGSGTDFTLTISSLQPEDFATYYCLQDFNYPYTFGQGTKLEIK
notes: also called CLONE_1 (parental)
% inhibition [11]: 0% | Elisa Binding (OD) [12]: 2.83 OD | EC50 [13]: 5.57 nM | EC50 [14]: 5.43 nM | Elisa Binding (OD) [15]: 2.87 OD | % inhibition [16]: 34% | % inhibition [17]: 98% | EC50 [18]: 7.45 nM | Elisa Binding (OD) [19]: 1.16 OD | % inhibition [20]: 98% | EC50 [21]: 4.53 nM

B5: anti-CD30L clone 59 (antibody, V domains shown)
VH: QVQLVESGGGVVQPGRSLRLSCAASGFTFSIYGMHWVRQAPGKGLEWVAVIWYDGSNKYYVDSVKGRFTISRDNSKNSLYLQMNSLRAEDTAVYYCAREGNLFDYWGQGTLVTVSS
VL: DIQMTQSPSTLSASVGDRVTITCRASQSISSWLAWYQQKPGKAPKLLIYKASSLESGVPSRFSGSGSGTEFTLTISSLKPDDFATYYCQQYKSYYTFGQGTKLEIK
OD [22]: 0.06 OD | MFI [23]: 9790 MFI

B6: anti-CD30L clone 60 (antibody, V domains shown)
VH: QVHLVESGGGVVQPGRSLRLSCAASGFAFNIYGMHWVRQAPGKGLEWVAVISYDGSNKVYADSVKGRFSISRDNSKNTLYLQMNSLRAEDTAVYYCAKSGGITMVRGVFDYWGQGTLVTVSS
VL: DIQMTQSPSSLPASVGDRVTITCRASQGIRNDLGWYQQKPGKAPKRLIHAASSLHSGVPSRFSGSGSGTEFTLTISSLQPEDFATYYCLQHNRYPITFGQGTRLEIK
OD [22]: 0.23 OD | MFI [23]: 1090 MFI

B7: anti-CD30L Reference 1 antibody (antibody, human IgG1, lambda, V domains shown)
VH: QVQLQESGPGLVKPSETLSLTCTVSGGSISSYIWSWIRQPAGKGLEWIGRIYASGNTNYNPSLKSRVTISVDTSKNQFSLKLSSMTAADTAVYYCARDYRVAGTYYYYYGLDVWGQGTTVTVSS
VL: QSALTQPASVSGSPGQSITISCTGTSSDVGVYDYVSWYQQHPGKAPKLMIYEVSNRPSGVSNRFSGSKSGNTASLTISGLQTEDEADYYCSSYTSRSTWVFGGGTKLTVLG
Inhibition of IL-8 release in a dual cell assay (B16-huCD30L cells + K299 cells) IC50 [24]: 1.74 nM | Inhibition of IL-8 release in a dual cell assay (HEK293-cyCD30L cells + K299 cells) IC50 [25]: 0.68 nM | EC50 [26]: 1.74 nM | EC50 [13]: 3.07 nM | EC50 [14]: 3.12 nM | EC50 [18]: 3.63 nM | IC50 [27]: 2.77 nM | EC50 [21]: 2.82 nM
